In US11945858B2, “Antibodies and antibody fragments against HNAV1.7 channel and their use in pain and cancer indications” (NATIONAL RESEARCH COUNCIL OF CANADA, priority 2018, dated 2024):
Entries after “also recorded” stand apart in the source; their conditions may differ.

Legend:
[1] = system: FC5DIIIDIR (extracellular loop DIII of the hNav1.7 channels grafted to FC5 scaffold); experiment: Phage ELISA on FC5DIIIDIR; format: binding, human
[2] = system: OD1-evoked Nav1.7-mediated spontaneous pain behaviours; format: in vivo, mouse; details: 50 μg VHH
[3] = system: VHH FC5; experiment: Phage ELISA on VHH FC5; format: binding
VHH FC5, sequence (as listed by the source): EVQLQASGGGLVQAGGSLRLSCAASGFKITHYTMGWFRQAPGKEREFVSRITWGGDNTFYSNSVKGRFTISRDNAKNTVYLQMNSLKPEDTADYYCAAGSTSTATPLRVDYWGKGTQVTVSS
Description: FIG. 25A Phages were rescued from individual colonies, selected from the fourth round of panning and grown overnight at 37° C. Wells of a Nunc microtiter plate were coated with FC5DIE3IR and FC5 proteins at 5 μg/ml in PBS. After blocking, 100 μl of phage supernatants (from clones A-H) were added to the respective wells followed by incubation for 1 h at room temperature and addition of anti-M13-HRP conjugate. Binding was detected with TMB substrate and A450 was measured using an ELISA plate reader. As shown, six positive clones (DI-A, DI-B, DI-C, DI-D, DI-E and DI-H), having a signal of at least 3× background, were identified by phage-ELISA.
Additional rounds (up to 3) of panning were performed by coating the ELISA plate with the same proteins and using the amplified phages after each round of panning as described above. After four rounds of panning, 77 randomly picked colonies were grown and subjected to monoclonal phage ELISA screening as described previously (Arbabi-Ghahroudi et al., 2009) except that 5 μg/ml of FC5DIE3IR and FC5 VHH (the negative control) were coated onto a microtiter plate. All positive clones specifically binding to FC5DIE3IR were sequenced and unique VHH sequences were selected for sub-cloning, large-scale expression, and purification. A total of 6 VHHs specific to FC5DIE3IR were isolated. […]

[4] = system: 2A3-H4; experiment: Surface Plasmon Resonance for VHH antibodies, immobilized irrelevant VHH 2A3-H4; format: binding; details: SPR; 25 C
Description: (§1) Surface Plasmon Resonance for VHH antibodies. For SPR experiments, IMAC-purified VHHs DI-D, DI-4, DI-16, DI-28 and DI-48 were passed through a Superdex 75 (GE Healthcare) column for SEC purification in HBS-EP+buffer (10 mM HEPES, pH 7.4, containing 150 mM NaCl, 3 mM EDTA and 0.05% P20), connected to an AKTAPurifier (GE Healthcare) at a flow rate of 1 ml/min. Monomeric VHH fractions were collected and protein concentration determined by measuring A280 measurement. Using a Biacore T200 instrument (GE Healthcare), approximately 500-1000 RUs of FC5DIE3IR, FC5 and an irrelevant VHH (2A3-H4) were immobilized on a CM5 Series S sensor chip (GE Healthcare) at pH 4.0 using standard amine coupling according to the manufacturer's instructions (GE Healthcare). […] Surfaces were regenerated by washing with a 120 s pulse of 10 mM glycine pH 1.5. Data were analyzed with Biacore T200 Software v 3.0 and affinities determined using steady state binding or a 1:1 binding model.

[5] = molecular target: hNav1.7 channels (Homo sapiens, UniProt Q15858, W1161R); experiment: Patch-clamp whole-cell recordings in hNav1.7-HEK293 cells; format: cell-based
[6] = molecular target: T1, FC5DIE3IR (Homo sapiens, UniProt Q15858); experiment: Surface Plasmon Resonance for VHH antibodies, immobilized FC5DIE3IR; format: binding; details: SPR
T1 construct: The supernatant was collected and loaded on a 5 ml MabSelect™ SuRe™ column; made in house; host or cells: CHO-3E7 (transient, pTT5 vector), purified from supernatant
Description: as §1

[7] = system: FC5; experiment: Surface Plasmon Resonance for VHH antibodies, immobilized FC5; format: binding; details: SPR; 25 C
FC5, sequence (as listed by the source): as above
Description: as §1

[8] = system: CFA-induced thermal hyperalgesia; experiment: Hargreaves Model of Hyperalgesia in rats; format: in vivo, rat; details: for Percentage of maximum possible effect (% MPE): 4 h (FIG. 27B)
Description: Hargreaves Model of Hyperalgesia in rats. Rats aged 4-6 weeks (weight range, 180-220 g) were used for intraplantar (ipl) administrations of various antibodies and evaluation of their efficacy in the Hargreaves model of inflammatory pain. Chronic inflammatory pain is induced by injecting a low volume (50 μl) of complete Freund's adjuvant (CFA; heat-killed M. tuberculosis—Sigma, St. Louis, Mo.—suspended in oil:saline 2:1 emulsion) into the right hind paw. The paw withdrawal latency in response to the application of a radiant stimulus onto the plantar surface of both right and left paw was measured using the plantar Analgesia Meter equipment for paw stimulation (IITC Life Science, Woodland Hills, Calif.). The time taken by the animal to respond by licking or flicking its paw is interpreted as positive response (paw withdrawal latency). After 48 h of the CFA injection, the baseline for latency paw withdrawal was measured and the mAbs tested. […] A cut-off time (20 sec) is established at the end of which the heat source shuts off automatically to avoid tissue damage. Animals were kept (randomized) one per cage and staff performing pain experiments are blinded to the content of injectable compounds. Percentage of maximum possible effect (% MPE) was calculated using the formula % MPE=(Test Latency−Baseline Latency)×100/(Cut-off−Baseline Latency).

[9] = −20 mV, after antibody application (1 μM)

B1: DI-D: anti-hNav1.7 VHH from phage-displayed LAC-M naïve library; SEQ ID NO: 38 (protein)
VHH: QVKLEESGGGLVQPGGSLKLSCVASGFAFSSAPMDWVRKAPGKDVEWLSTIESDQDHTIYYANSVKGRFTISRDDVQNILYLQMNDLKIEDTATYYCQKRGEKKTRGQGTQVTVSS
modifications: DI-D
In the case of B1, the “Binding of the phage to FC5DIIIDIR (in words)” value [1] is reported as “did not bind”, the “Effect on spontaneous pain behaviours evoked by OD1 (in words)” value [2] is reported as “reversed spontaneous pain behaviours” and the “Time spent in pain behaviors (saline plus OD1 = 100%)” value ([2]; injected 60 minutes prior to OD1, 20 min after the injection) is reported as 44.33%±8.8. The “Binding of the phage to VHH FC5 (in words)” value [3] was “did not bind”, the “Binding to immobilized 2A3-H4 (comment, in words)” value [4] was “No binding” and the “Reduction currents (%)” value ([5]; 1 μM) was 11.7%±5.8. For the same molecule, the “Time constant of the block of the hNav1.7 currents (effect onset)” value ([5]; 1 μM) was 113 ± 11 s, the “Voltage-dependence of activation (shift V1/2 activation)” value ([5]; 1 μM) was −6.1±1.0 mV and the “Voltage-dependence of the steady-state fast inactivation (shift V1/2 inactivation)” value ([5]; 1 μM) was −6.8±1.5 mV. The “hNav1.7 current remaining, % of control” value ([5]; 1 μM, 500 sec recording (FIG. 26B)) was “approx. 91%”, the “Onset time of the effect (exponential fit of the current decay, T)” value ([5]; 1 μM, single time-course recording of the figure) was 150 s and the “Reduction currents (%)” value ([5]; 2 μM) was 15.0%±6.9. For the same molecule, the “Time constant of the block of the hNav1.7 currents (effect onset)” value ([5]; 2 μM) was 200 ± 45 s, the “Reduction currents (%)” value ([5]; 3 μM) was 24.1%±5.6 and the “Effect on hNav1.7 currents (in words)” value ([5]; example recordings, 1-3 μM) was “reduced hNav1.7 current in a dose dependent manner”. For the same molecule, the “Efficacy (degree of maximum inhibition)” value ([5]; resting/closed state) was 27.4±5. %, the “Fast inactivation (time constant)” value [5, 9] was 1.29 ± 0.30 ms and the Time-to-peak [5, 9] was 1.64 ± 0.37 ms. The “Binding to immobilized FC5DIE3IR (comment, in words)” value [6] was “clear binding; also recorded: binds specifically”, the “Binding to immobilized FC5 (comment, in words)” value [7] was “trace amounts of binding; also recorded: Weak/residual binding” and the Latency paw withdrawal ([8]; 50 μg intraplantar, 4 h) was 8.36 ± 0.53 s. For the same molecule, the “Percentage of maximum possible effect (% MPE)” value ([8]; 50 μg intraplantar) was 21.59%±4.05, the Latency paw withdrawal ([8]; 100 μg intraplantar, 1 h) was 13.35 ± 0.44 s and the Latency paw withdrawal ([8]; 100 μg intraplantar, 2 h) was 11.40 ± 0.69 s. For the same molecule, the Latency paw withdrawal ([8]; 100 μg intraplantar, 4 h) was 11.78 ± 0.50 s and the “Percentage of maximum possible effect (% MPE)” value ([8]; 100 μg intraplantar) was 45.19%±4.40.
